Reference: patent publication US20230242646A1 (JJP BIOLOGICS SP Z O O, published 2023)
Residue numbers refer to the chain shown, from its start. One block for each binder: values may come before it.

Legend:
[1] = target: T1, membrane-bound full-length human CD89 on HEK293F cells (human, UniProt P24071 22-287); assay: FACS HEK293F-huCD89
T1 construct: 2 or transient transfectants; also called membrane human CD89; human FcaRI
Experimental: After extensive washing in PBS/BSA/NaN₃, cells were subsequently incubated with 1:200 diluted PE-conjugated goat anti-human IgG Fcy-specific antibodies (Jackson ImmunoResearch) for 30 minutes at 4° C. After extensive washing in PBS/BSA/NaN₃, cells were fixed in 2% formaldehyde in PBS/BSA/NaN₃ for 30 minutes at 4° C.

[2] = target: T2, recombinant C-terminal polyhistidine-tagged human (extracellular) CD89 (Sino Biological) (human, UniProt P24071 22-227); assay: ELISA, coated rhuCD89
T2 construct: extracellular domain; bought protein; also called rhuCD89; soluble monomeric rhuCD89

[3] = target: T1, membrane-bound full-length human CD89 …; assay: FACS on HEK293F-huCD89
Experimental: Then, 10 µL/tube (i.e., 0.1 x 10⁶ cells) of these cells were incubated with 100 µL titrated (in PBS/BSA/NaN₃) purified mouse anti-human CD89 antibody/tube for 30 minutes at 4° C. […] After extensive washing in PBS/BSA/NaN₃, cells were subsequently incubated with 1:200 diluted PE-conjugated goat anti-mouse IgG Fcy-specific antibodies (Jackson ImmunoResearch) for 30 minutes at 4° C. After extensive washing in PBS/BSA/NaN₃, cells were fixed in 2% formaldehyde in PBS/BSA/NaN₃ for 30 minutes at 4° C.

[4] = target: T1, membrane-bound full-length human CD89 …; assay: FACS HEK293F-huCD89, 10 ug/mL; competitor PE-MIP8a
Experimental: (§1) Then, 10 µL/tube (i.e., 0.1 × 10⁶ cells) of these cells were incubated with or without 100 µL purified mouse anti-human CD89 antibody at 10 µg/mL (in PBS/BSA/NaN₃) for 30 minutes at 4° C. […] After extensive washing in PBS/BSA/NaN₃, cells were fixed in 2% formaldehyde in PBS/BSA/NaN₃ for 30 minutes at 4° C.

[5] = target: T3, chimeric bovine EC1-Fcgamma2R/human EC2-CD89 on HEK293F cells (bovine/human chimera); assay: FACS, transiently transfected HEK293F
T3 chain: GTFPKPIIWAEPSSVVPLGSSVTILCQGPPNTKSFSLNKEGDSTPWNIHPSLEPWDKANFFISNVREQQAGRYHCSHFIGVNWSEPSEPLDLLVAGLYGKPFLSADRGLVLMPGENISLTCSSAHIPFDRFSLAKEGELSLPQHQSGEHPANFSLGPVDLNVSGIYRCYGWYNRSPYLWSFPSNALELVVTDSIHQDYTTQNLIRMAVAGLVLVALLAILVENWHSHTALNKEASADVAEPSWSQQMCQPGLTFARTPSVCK
Experimental: To this end, transient transfected HEK293F cells were put at 10 × 10⁶ cells/mL in ice-chilled phosphate-buffered saline containing 0.1% BSA (Sigma)/0.05% NaN₃ (PBS/BSA/NaN₃) supplemented with 50 µg/mL human IgGs (blocking Fcy receptors; Sigma) for 10 minutes at 4° C. Then, 10 µL/tube (i.e., 0.1 × 10⁶ cells) of these cells were incubated with or without 100 µL purified mouse anti-human CD89 antibody at 10 µg/mL (in PBS/BSA/NaN₃) for 30 minutes at 4° C. […] After extensive washing in PBS/BSA/NaN₃, cells were subsequently incubated with 1:200 diluted PE-conjugated goat anti-mouse IgG Fcy-specific antibodies (Jackson ImmunoResearch) for 30 minutes at 4° C. After extensive washing in PBS/BSA/NaN₃, cells were fixed in 2% formaldehyde in PBS/BSA/NaN₃ for 30 minutes at 4° C.

[6] = target: T4, membrane full-length cynomolgus monkey CD89 on HEK293F cells (cynomolgus monkey); assay: FACS, transiently transfected HEK293F
T4 construct: also called cynoCD89; cynomolgus EC1-CD89
T4 chain: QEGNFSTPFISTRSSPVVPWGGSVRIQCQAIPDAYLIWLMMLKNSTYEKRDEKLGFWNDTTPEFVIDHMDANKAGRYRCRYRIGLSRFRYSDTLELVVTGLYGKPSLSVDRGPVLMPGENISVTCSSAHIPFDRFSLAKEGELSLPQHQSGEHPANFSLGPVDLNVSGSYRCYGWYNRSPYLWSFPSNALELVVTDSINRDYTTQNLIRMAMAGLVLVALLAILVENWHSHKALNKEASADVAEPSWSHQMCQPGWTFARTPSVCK
Experimental: To this end, transient transfected HEK293F cells were put at 10 x 10⁶ cells/mL in ice-chilled phosphate-buffered saline containing 0.1% BSA (Sigma)/0.05% NaN₃ (PBS/BSA/NaN₃) supplemented with 50 µg/mL human IgGs (blocking FcY receptors; Sigma) for 10 minutes at 4° C. Then, 10 µL/tube (i.e., 0.1 × 10⁶ cells) of these cells were incubated with or without 100 µL purified mouse anti-human CD89 antibody at 10 µg/mL (in PBS/BSA/NaN₃) for 30 minutes at 4° C. […] After extensive washing in PBS/BSA/NaN₃, cells were subsequently incubated with 1:200 diluted PE-conjugated goat anti-mouse IgG Fcy-specific antibodies (Jackson ImmunoResearch) for 30 minutes at 4° C. After extensive washing in PBS/BSA/NaN₃, cells were fixed in 2% formaldehyde in PBS/BSA/NaN₃ for 30 minutes at 4° C.

[7] = target: T5, chimeric human/cynomolgus monkey CD89-II on HEK293F cells (human/cynomolgus chimera, UniProt P24071 22-287); assay: FACS, transiently transfected HEK293F
T5 construct: also called dIle47 - Ile71 human EC1-CD89; II (47-71)
T5 chain: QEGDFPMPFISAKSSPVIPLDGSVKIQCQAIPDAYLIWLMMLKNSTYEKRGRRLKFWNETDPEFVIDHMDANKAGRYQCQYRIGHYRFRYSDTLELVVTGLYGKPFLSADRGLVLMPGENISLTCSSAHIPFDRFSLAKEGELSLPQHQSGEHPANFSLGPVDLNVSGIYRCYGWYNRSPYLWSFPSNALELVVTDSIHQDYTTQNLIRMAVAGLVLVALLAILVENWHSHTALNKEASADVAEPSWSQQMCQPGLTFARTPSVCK
Experimental: (§2) To this end, transient transfected HEK293F cells were put at 10 × 10⁶ cells/mL in ice-chilled phosphate-buffered saline containing 0.1% BSA (Sigma)/0.05% NaN₃ (PBS/BSA/NaN₃) supplemented with 50 µg/mL human IgGs (blocking FcY receptors; Sigma) for 10 minutes at 4° C. Then, 10 µL/tube (i.e., 0.1 × 10⁶ cells) of these cells were incubated with or without 100 µL purified mouse anti-human CD89 antibody at 10 µg/mL (in PBS/BSA/NaN₃) for 30 minutes at 4° C. […] After extensive washing in PBS/BSA/NaN₃, cells were subsequently incubated with 1:200 diluted PE-conjugated goat anti-mouse IgG Fcy-specific antibodies (Jackson ImmunoResearch) for 30 minutes at 4° C. After extensive washing in PBS/BSA/NaN₃, cells were fixed in 2% formaldehyde in PBS/BSA/NaN₃ for 30 minutes at 4° C.

[8] = target: T6, chimeric human/cynomolgus monkey CD89-I on HEK293F cells (human/cynomolgus chimera, UniProt P24071 22-287); assay: FACS, 10 µg/mL, transiently transfected HEK293F
T6 construct: also called dGln22 - Lys46 human EC1-CD89; I (22-46)
T6 chain: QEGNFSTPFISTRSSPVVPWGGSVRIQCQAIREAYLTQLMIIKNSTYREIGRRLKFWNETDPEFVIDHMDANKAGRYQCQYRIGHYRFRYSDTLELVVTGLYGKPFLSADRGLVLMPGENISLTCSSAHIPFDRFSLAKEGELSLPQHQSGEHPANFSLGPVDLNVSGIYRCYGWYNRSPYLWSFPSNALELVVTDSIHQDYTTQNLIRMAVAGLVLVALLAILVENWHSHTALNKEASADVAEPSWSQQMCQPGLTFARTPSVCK
Experimental: as §2

[9] = target: T7, chimeric human/cynomolgus monkey CD89-III on HEK293F cells (human/cynomolgus chimera, UniProt P24071 22-287); assay: FACS, 10 µg/mL, transiently transfected HEK293F
T7 construct: also called dGly72 - Gly96 human EC1-CD89; III (72-96)
T7 chain: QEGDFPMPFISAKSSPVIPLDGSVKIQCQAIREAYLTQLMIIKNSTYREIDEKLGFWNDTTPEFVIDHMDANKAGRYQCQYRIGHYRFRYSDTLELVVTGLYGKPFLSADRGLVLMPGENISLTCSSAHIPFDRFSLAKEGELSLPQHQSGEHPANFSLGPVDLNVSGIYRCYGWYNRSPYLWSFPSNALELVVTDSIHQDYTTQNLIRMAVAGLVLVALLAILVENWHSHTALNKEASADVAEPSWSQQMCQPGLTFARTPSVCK
Experimental: as §2

[10] = target: T8, chimeric human/cynomolgus monkey CD89-IV on HEK293F cells (human/cynomolgus chimera, UniProt P24071 22-287); assay: FACS, 10 µg/mL, transiently transfected HEK293F
T8 construct: also called dArg97 - Gly121 human EC1-CD89
T8 chain: T7 chain with D51G, E52R, K53R, G55K, D59E, T61D, Q78R, Q80R, H85L, Y86S
Experimental: as §2

[11] = target: T9, chimeric human/cynomolgus monkey CD89-hotspots on HEK293F cells (human/cynomolgus chimera, UniProt P24071 22-287); assay: FACS, 10 µg/mL, transiently transfected HEK293F
T9 construct: also called dThr58, Gln59; dArg73, Arg74, Lys76
T9 chain: T7 chain with T37I, Q38W, D51G, D59E, T61D, H85L, Y86S
Experimental: as §2

[12] = target: T1, membrane-bound full-length human CD89 …; assay: FACS, antibody before serum IgA on HEK293F-huCD89; IgA detected
Experimental: Then, 10 µL/tube (i.e., 0.1 x 10⁶ cells) of these cells were incubated with 50 µL titrated (in PBS/BSA/NaN₃) purified mouse anti-human CD89 antibody/tube for 30 minutes at 4° C. […] After extensive washing in PBS/BSA/NaN₃, 1:200 diluted PE-conjugated streptavidin (Jackson ImmunoResearch) was added, and incubated for 30 minutes at 4° C. After extensive washing in PBS/BSA/NaN₃, cells were fixed in 2% formaldehyde in PBS/BSA/NaN₃ for 30 minutes at 4° C.

[13] = target: T1, membrane-bound full-length human CD89 …; assay: FACS, antibody before secretory IgA on HEK293F-huCD89; IgA detected
Experimental: Then, 10 µL/tube (i.e., 0.1 x 10⁶ cells) of these cells were incubated with or without 50 µL titrated (in PBS/BSA/NaN₃) purified mouse anti-human CD89 antibody/tube for 30 minutes at 4° C. […] After extensive washing in PBS/BSA/NaN₃, 1:200 diluted PE-conjugated streptavidin (Jackson ImmunoResearch) was added, and incubated for 30 minutes at 4° C. After extensive washing in PBS/BSA/NaN₃, cells were fixed in 4% formaldehyde in PBS/BSA/NaN₃ for 30 minutes at 4° C.

[14] = target: T1, membrane-bound full-length human CD89 …; assay: FACS HEK293F-huCD89, supernatant
Experimental: After extensive washing in PBS/BSA/NaN₃, cells were subsequently incubated with 1:200 diluted PE-conjugated goat anti-human IgG Fcγ-specific antibodies (Jackson ImmunoResearch) for 30 minutes at 4° C. After extensive washing in PBS/BSA/NaN₃, cells were fixed in 4% formaldehyde in PBS/BSA/NaN₃ for 30 minutes at 4° C.

[15] = target: T2, recombinant C-terminal …; assay: ELISA, coated rhuCD89, supernatant
Experimental: After extensive washing with PBS/0.05% Tween 20, plates were blocked with PBS/0.05% Tween 20/1% BSA (Roche) for 1 hour at RT. […] After extensive washing in PBS/0.05% Tween 20, binding of antibodies on rhuCD89 was determined with 1:5,000 diluted horseradish peroxidase (HRP)-conjugated goat anti-human IgG Fcγ-specific antibodies (Jackson ImmunoResearch) for 1 hour at RT, followed by a ready-to-use solution of TMB substrate (Invitrogen) for colorimetric detection. After adding 1 M HCL, binding (optical density) of antibodies on rhuCD89 was measured at wavelength of 450 nm (reference wavelength of 655 nm) using a microplate reader (Synergy HTX; BioTek).

[16] = target: T2, recombinant C-terminal …; assay: ELISA on coated rhuCD89
Experimental: After extensive washing with PBS/0.05% Tween 20, plates were blocked with PBS/0.05% Tween 20/1% BSA (Roche) for 1 hour at RT. Subsequently, plates were incubated with 50 µL titrated (in block buffer) purified mouse anti-human CD89 antibody/well for 1 hour at RT. […] After extensive washing in PBS/0.05% Tween 20, binding of antibodies on rhuCD89 was determined with 1:5,000 diluted horseradish peroxidase (HRP)-conjugated goat anti-mouse IgG Fcy-specific antibodies (Jackson ImmunoResearch) for 1 hour at RT, followed by a ready-to-use solution of TMB substrate (Invitrogen) for colorimetric detection.

[17] = target: T10, membrane human CD89 on ex vivo primary human neutrophilic granulocytes or monocytic U937 cells (human, UniProt P24071 22-287); assay: cell-based or functional assay
[18] = target: T10, membrane human CD89 on ex vivo primary …; assay: cell-based or functional assay; remark: listed apart in the source
[19] = target: T5, chimeric human/cynomolgus monkey …; assay: FACS, 10 µg/mL, transiently transfected HEK293F
Experimental: as §2

[20] = target: T1, membrane-bound full-length human CD89 …; assay: FACS, unlabelled antibody before A3-PE on HEK293F-huCD89
[21] = target: T1, membrane-bound full-length human CD89 …; assay: FACS HEK293F-huCD89, 10 ug/mL; competitor PE-A3
Experimental: as §1

[22] = target: T1, membrane-bound full-length human CD89 …; assay: FACS HEK293F-huCD89, 10 ug/mL; competitor PE-A59
Experimental: as §1

[23] = target: T1, membrane-bound full-length human CD89 …; assay: FACS, unlabelled antibody before MIP8a-PE on HEK293F-huCD89
[24] = target: T2, recombinant C-terminal …; assay: ELISA, antibody before serum IgA on coated rhuCD89; IgA detected
Experimental: After extensive washing with PBS/0.05% Tween 20, plates were blocked with PBS/0.05% Tween 20/1% BSA (Roche) for 1 hour at RT. Subsequently, plates were incubated with 25 µL titrated (in block buffer) purified mouse anti-human CD89 antibody/well for 30 minutes at RT. […] After extensive washing in PBS/0.05% Tween 20, 1:10,000 diluted HRP-conjugated streptavidin (Jackson ImmunoResearch) was added, and incubated for 1 hour at RT, followed by a ready-to-use solution of TMB substrate (Invitrogen) for colorimetric detection.

- EC50 [1]: 0.26 µg/mL
- EC50 [2]: 0.013 µg/mL
- EC50 (read off the curve) [3]: ~0.2 µg/mL
- % blocking of PE-MIP8a binding [4]: < 25%
- binding result [5]: no binding (tested: 10 µg/mL)
- binding result [6]: no binding (tested: 10 µg/mL)
- binding result [7]: no binding (tested: 10 µg/mL)
- binding result [8]: binds
- binding result [9]: binds
- binding result [10]: binds
- binding result [11]: binds
- IC50 (read off the curve) [12]: ~0.3 µg/mL
- IC50 (read off the curve) [13]: ~0.4 µg/mL
B1: CD89/IgA blocking mouse anti-human CD89-specific antibody 20B4 (antibody, V domains shown)
VH: QVQLKESGPGLVAPSQSLSITCTVSGFSLTSYGVHWVRQPPGKGLEWLGIIWAGGSTSYNSALMSRLSISKDNSKSQVFLKMNSLQTDDTAMYYCARDHYDLFAYWGQGTLVTVSA
VL: DILMTQSPSSMSVSLGDTVSITCHASQDISRNIGWLQQKPGKSFKGLIYHGTNLEDGVPSRFSGSGSGADYSLTISSLESEDFADYYCVQYAQFPRTFGGGTKLEIK

- EC50 [14]: ~1 µg/mL
- EC50 [15]: ~0.02 µg/mL
B2: humanized IgG4/kappa anti-human CD89 monoclonal antibody 10E7 version VH3VL3 (antibody)
heavy: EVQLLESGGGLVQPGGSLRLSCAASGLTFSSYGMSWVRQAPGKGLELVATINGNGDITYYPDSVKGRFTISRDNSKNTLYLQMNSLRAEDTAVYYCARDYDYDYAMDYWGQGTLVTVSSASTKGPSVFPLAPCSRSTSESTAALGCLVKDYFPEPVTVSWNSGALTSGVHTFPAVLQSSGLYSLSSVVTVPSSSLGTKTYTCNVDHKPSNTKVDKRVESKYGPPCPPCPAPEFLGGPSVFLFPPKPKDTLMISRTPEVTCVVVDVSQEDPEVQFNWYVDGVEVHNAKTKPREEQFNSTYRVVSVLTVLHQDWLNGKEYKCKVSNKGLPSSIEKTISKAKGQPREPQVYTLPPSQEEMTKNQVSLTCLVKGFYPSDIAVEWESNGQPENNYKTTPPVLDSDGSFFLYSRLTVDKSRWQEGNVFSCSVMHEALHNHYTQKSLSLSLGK
light: DIQMTQSPSSLSASVGDRVTITCRASQDIINYLNWYQQKPGKAVKLLIYYTSRLHSGVPSRFSGSGSGTDYTLTISSLQPEDFATYYCQQGKTLPYTFGQGTKLEIKRTVAAPSVFIFPPSDEQLKSGTASVVCLLNNFYPREAKVQWKVDNALQSGNSQESVTEQDSKDSTYSLSSTLTLSKADYEKHKVYACEVTHQGLSSPVTKSFNRGEC
notes: tested as supernatant; signal peptide end derived as for m17

- EC50 [14]: ~1 µg/mL
- EC50 [15]: ~0.02 µg/mL
B3: humanized IgG4/kappa anti-human CD89 monoclonal antibody 10E7 version VH3VL4 (antibody)
heavy: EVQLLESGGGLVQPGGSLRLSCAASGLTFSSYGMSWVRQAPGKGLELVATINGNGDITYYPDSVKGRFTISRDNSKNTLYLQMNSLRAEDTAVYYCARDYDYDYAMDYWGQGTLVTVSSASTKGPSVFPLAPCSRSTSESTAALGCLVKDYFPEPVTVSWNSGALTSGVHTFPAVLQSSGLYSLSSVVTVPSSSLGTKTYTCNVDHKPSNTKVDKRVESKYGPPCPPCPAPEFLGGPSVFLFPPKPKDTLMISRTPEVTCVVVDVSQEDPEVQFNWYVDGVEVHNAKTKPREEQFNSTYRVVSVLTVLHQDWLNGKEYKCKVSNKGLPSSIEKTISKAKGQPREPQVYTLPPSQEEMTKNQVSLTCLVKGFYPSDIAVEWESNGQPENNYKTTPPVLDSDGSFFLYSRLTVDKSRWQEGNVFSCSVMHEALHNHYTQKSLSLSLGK
light: B2 light with A43T, Y87F
notes: as for B2

- EC50 (read off the curve) [16]: ~0.008 µg/mL
- IC50 (read off the bars), binding of granulocytes to plate-bound serum IgA [Donor 2] [17]: ~0.1 µg/mL
- IC50 (read off the bars), binding of granulocytes to plate-bound serum IgA [Donor 3] [18]: ~1 µg/mL
- % blocking of PE-MIP8a binding [4]: > 90%
- binding result [5]: no binding (tested: 10 µg/mL)
- binding result [6]: no binding (tested: 10 µg/mL)
- binding result [8]: binds
- binding result [19]: binds
- binding result [9]: binds
- binding result [11]: binds
- IC50 (read off the curve) [20]: ~0.3 µg/mL
- IC50 (read off the curve) [12]: ~0.2 µg/mL
- IC50 (read off the curve) [13]: ~0.3 µg/mL
B4: CD89/IgA blocking mouse anti-human CD89-specific antibody 26D6 (antibody, V domains shown)
VH: QIQLVQSGPELKKPGETVKISCKASGYTLTKYGMNWVKQAPGKGLKWMGWINTYTGEPTYADDFKGRFAFSLETSASTAYLQINNLKNEDTATYFCASLPLFGRDSFAYWGQGTLVTVSA
VL: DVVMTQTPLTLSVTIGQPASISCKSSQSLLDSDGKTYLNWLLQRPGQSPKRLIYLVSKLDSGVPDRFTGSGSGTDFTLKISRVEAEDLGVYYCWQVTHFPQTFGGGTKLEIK
notes: also called 26B6 [sic]

- EC50 [1]: 0.484 µg/mL
- EC50 [2]: 0.029 µg/mL
- EC50 (read off the curve) [3]: ~0.4 µg/mL
- IC50 (read off the bars), binding of granulocytes to plate-bound serum IgA [Donor 2] [17]: ~0.6 µg/mL
- % blocking of PE-A3 binding [21]: < 25%
- % blocking of PE-A59 binding [22]: < 25%
- % blocking of PE-MIP8a binding [4]: > 90%
- binding result [5]: no binding (tested: 10 µg/mL)
- binding result [7]: no binding (tested: 10 µg/mL)
- binding result [8]: binds
- binding result [9]: binds
- binding result [10]: binds
- binding result [11]: binds
- IC50 (read off the curve) [23]: ~1 µg/mL
- IC50 (read off the curve) [12]: ~0.6 µg/mL
- IC50 (read off the curve) [24]: ~0.1 µg/mL
- IC50 (read off the curve) [13]: ~1 µg/mL
B5: CD89/IgA blocking mouse anti-human CD89-specific antibody 30C7 (antibody, V domains shown)
VH: QVQLQQSGPELVRPGVSVKISCKGSGYTFTDYVMHWVKQSHAKSLEWIGVISTYSGNTNYNQKFKGKATMTVDKSSSTAYMELARLTSEDSAIYYCARESDGYYFDYWGQGTTLTVSS
VL: DIVMSQSPSSLAVSAGEKVTMSCKSSQSLLNSRTRKNYLAWYQQKPGQSPKLLIYWASTRESGVPDRFTGSGSGTDFTLTISSVQAEDLAVYYCKQSYNLMYTFGGGTKLEIK
